These results are taken from patent publication US20240124607A1 (Merck Sharp & Dohme, published 2024).

Experiment [1] deals with T1, human CEACAM5 on cells (human, UniProt P06731 35-685).
T1 construct: tumour cell lines with endogenous CEACAM5, or B16F10 engineered to express hCEACAM5; also called CEACAM5 on MKN-45, HPAF-II, SK-CO-1, LoVo, BxPC-3, Kato-III, LS-174T, ZR-75-30; hCEACAM5-B16F10
T1 sequence: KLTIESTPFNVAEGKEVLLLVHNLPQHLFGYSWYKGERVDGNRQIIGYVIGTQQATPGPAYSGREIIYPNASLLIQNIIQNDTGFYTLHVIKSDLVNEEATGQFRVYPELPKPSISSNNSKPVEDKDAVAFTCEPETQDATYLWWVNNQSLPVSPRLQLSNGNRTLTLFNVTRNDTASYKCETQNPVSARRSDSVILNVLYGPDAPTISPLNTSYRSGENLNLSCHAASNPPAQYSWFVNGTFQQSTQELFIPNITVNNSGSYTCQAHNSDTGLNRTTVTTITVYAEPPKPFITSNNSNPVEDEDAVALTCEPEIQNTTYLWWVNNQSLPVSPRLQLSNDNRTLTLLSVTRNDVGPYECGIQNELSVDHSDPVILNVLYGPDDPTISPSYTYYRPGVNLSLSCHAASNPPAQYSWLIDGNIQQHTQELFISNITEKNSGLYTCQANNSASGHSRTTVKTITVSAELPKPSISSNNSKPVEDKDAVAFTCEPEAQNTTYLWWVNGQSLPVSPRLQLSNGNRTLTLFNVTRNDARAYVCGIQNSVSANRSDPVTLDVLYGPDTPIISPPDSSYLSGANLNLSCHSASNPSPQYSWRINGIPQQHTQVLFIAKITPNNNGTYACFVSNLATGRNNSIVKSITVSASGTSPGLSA
The experiment is described as follows: flow cytometry, MKN-45 cells.

In experiment [2] the target is T1, human CEACAM5 on cells. The experiment is described as follows: flow cytometry, BxPC-3 cells. Background: Flow cytometry measures light scatter and fluorescence of single cells or particles in a stream.
Experiment [3] deals with T1, human CEACAM5 on cells. The experiment is described as follows: flow cytometry, SK-CO-1 cells.
In experiment [4] the target is T1, human CEACAM5 on cells. As to the kind of experiment: flow cytometry, LoVo cells.
Experiment [5] deals with T1, human CEACAM5 on cells. The experiment is described as follows: flow cytometry, Kato-III cells.
For experiment [6], the target named is T2, soluble mouse Fc-human NKG2D dimer (human, UniProt P26718 78-216, limits assumed).
T2 construct: also called NKG2D-mFc; human NKG2D fused to a mouse Fc
T2 sequence (looked up): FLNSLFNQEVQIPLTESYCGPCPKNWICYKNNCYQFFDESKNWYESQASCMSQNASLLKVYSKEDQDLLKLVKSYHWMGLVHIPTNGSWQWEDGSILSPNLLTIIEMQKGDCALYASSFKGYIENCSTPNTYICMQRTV
As to the kind of experiment: SPR, mAb captured by anti-hFc, 37C. The method, then: Kinetics and affinity of various NKG2D-binding domains were assessed by surface plasmon resonance using Biacore 8K instrument (GE Healthcare). Anti-human Fe antibody was immobilized on a CM5 chip using standard amine coupling chemistry. Human monoclonal antibodies containing various NKG2D-binding domains were captured on the anti-human Fc chip at a density of approximately 100 RU. […] Surfaces were regenerated between cycles by quick injection of 10 mM glycine, pH 1.8. To obtain kinetic rate constants, double-referenced data were fit to a 1:1 interaction model using Biacore 8K Evaluation software (GE Healthcare). The equilibrium binding constant KD was determined by the ratio of dissociation constant kd and association constant kₐ (kd/kₐ).
A general note: In SPR one partner is held on a chip, and binding of the other changes the refractive index at the surface.

Experiment [7] concerns the target T3, human NKG2D-Fc (human, UniProt P26718 73-216).
T3 construct: extracellular domain; also called recombinant human NKG2D-Fc; NKG2D-Fc-biotin
T3 sequence (looked up): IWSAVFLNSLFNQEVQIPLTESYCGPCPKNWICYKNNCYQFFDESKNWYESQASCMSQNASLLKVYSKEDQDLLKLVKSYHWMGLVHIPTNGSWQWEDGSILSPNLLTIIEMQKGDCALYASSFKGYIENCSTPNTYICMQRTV
As to the kind of experiment: ELISA on plate-adsorbed recombinant human NKG2D-Fc, anti-human kappa-HRP, OD 450 nm. The source says:
(§1) The nucleic acid sequences of human, mouse or cynomolgus NKG2D ectodomains were fused with nucleic acid sequences encoding human IgG1 Fc domains and introduced into mammalian cells to be expressed. After purification, NKG2D-Fc fusion proteins were adsorbed to wells of microplates. After blocking the wells with bovine serum albumin to prevent non-specific binding, NKG2D-binding domains were titrated and added to the wells pre-adsorbed with NKG2D-Fc fusion proteins. Primary antibody binding was detected using a secondary antibody which was conjugated to horseradish peroxidase and specifically recognizes a human kappa light chain to avoid Fc cross-reactivity. 3,3′,5,5′-Tetramethylbenzidine (TMB), a substrate for horseradish peroxidase, was added to the wells to visualize the binding signal, whose absorbance was measured at 450 nm and corrected at […]. An NKG2D-binding domain clone, an isotype control or a positive control (comprising heavy chain and light chain variable domains selected from the group consisting of: SEQ ID NOs: 526-529, or anti-mouse NKG2D clones MI-6 and CX-5 available at eBioscience) was added to each well.
A general note: An ELISA detects its analyte on a solid surface through an enzyme-linked reagent.

For experiment [8], the target named is T4, mouse NKG2D-Fc (mouse, UniProt O54709 90-232).
T4 construct: extracellular domain; also called Mouse NKG2D-Fc-biotin
T4 sequence (looked up): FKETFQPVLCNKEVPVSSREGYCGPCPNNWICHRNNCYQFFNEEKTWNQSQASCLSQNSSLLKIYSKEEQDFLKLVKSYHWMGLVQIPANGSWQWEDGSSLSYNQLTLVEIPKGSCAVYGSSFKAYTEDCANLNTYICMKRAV
The experiment is described as follows: ELISA on plate-adsorbed recombinant mouse NKG2D-Fc, anti-human kappa-HRP, OD 450 nm.
Text: as §1

The target of experiment [9] is T5, cynomolgus NKG2D-Fc (cynomolgus monkey, UniProt P61252 73-216).
T5 construct: extracellular domain
T5 sequence (looked up): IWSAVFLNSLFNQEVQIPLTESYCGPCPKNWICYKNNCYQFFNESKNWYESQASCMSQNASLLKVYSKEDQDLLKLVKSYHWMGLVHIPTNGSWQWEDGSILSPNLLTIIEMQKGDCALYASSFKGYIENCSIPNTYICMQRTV
As to the kind of experiment: ELISA on plate-adsorbed recombinant cynomolgus NKG2D-Fc, anti-human kappa-HRP, OD 450 nm.
Text: as §1

B1: AB0755 (antibody, V domains shown)
VH: QVQLVQSGAEVKKPGASVKVSCKASGYTFTAYTIHWVRQAPGQGLEWMGYINPSSGYTEYNQKFKDRTTLTADTSIPTAYMELSRLRSDDTAVYYCTREGGLLWFDYWGQGTLVTVSS
VL: DIVMTQSPDSLAVSLGERATINCKSSHSLLYGNFQNNYLAWYQQKPGQPPKLLIYWASTRESGVPDRFSGSGSGTDFTLTISSLQAEDVAVYYCQQYYSYPYTFGGGTKLEIK
notes: the scFv entries carry the stabilising cysteines, which the mAb may lack; also called mAb corresponding to AB0264
In the case of B1, the EC50 (as a rule, the concentration giving half of the maximal effect) in experiment [1] stood at 4.69 nM; in experiment [2], 3.37 nM; in experiment [3] it was 5.84 nM; in [4], 2.71 nM; in [5], 1.16 nM. Besides, the “Max FOB” value in [1] amounted to 23 fold over background; in [2], 5 fold over background; in [3] it was 14 fold over background; in [4], 7 fold over background; in experiment [5], 3 fold over background.

B2: ADI-29379 (E79) (antibody, V domains shown)
VH: QVQLVQSGAEVKKPGASVKVSCKASGYTFTSYYMHWVRQAPGQGLEWMGIINPSGGSTSYAQKFQGRVTMTRDTSTSTVYMELSSLRSEDTAVYYCARGAPNYGDTTHDYYYMDVWGKGTTVTVSS
VL: EIVMTQSPATLSVSPGERATLSCRASQSVSSNLAWYQQKPGQAPRLLIYGASTRATGIPARFSGSGSGTEFTLTISSLQSEDFAVYYCQQYDDWPFTFGGGTKVEIK
Take B2: in [6], the Kd – broadly, a measure of binding affinity in units of concentration – was 50.7 nM; the koff (commonly the rate constant with which the complex falls apart) was found to be 0.0225 s⁻¹; the on-rate (kon) (usually a measure of how fast the partners come together) came to 443000 M⁻¹ s⁻¹.

B3: ADI-29378 (E78) (antibody, V domains shown)
VH: QVQLVQSGAEVKKPGASVKVSCKASGYTFTSYYMHWVRQAPGQGLEWMGIINPSGGSTSYAQKFQGRVTMTRDTSTSTVYMELSSLRSEDTAVYYCAREGAGFAYGMDYYYMDVWGKGTTVTVSS
VL: EIVLTQSPATLSLSPGERATLSCRASQSVSSYLAWYQQKPGQAPRLLIYDASNRATGIPARFSGSGSGTDFTLTISSLEPEDFAVYYCQQSDNWPFTFGGGTKVEIK
In [6], B3 displayed a Kd of 58.5 nM, a koff of 0.0487 s⁻¹ and a kon of 832000 M⁻¹ s⁻¹.

B4: ADI-27705 (antibody, V domains shown)
VH: QVQLQQWGAGLLKPSETLSLTCAVYGGSFSGYYWSWIRQPPGKGLEWIGEIDHSGSTNYNPSLKSRVTISVDTSKNQFSLKLSSVTAADTAVYYCARARGPWSFDPWGQGTLVTVSS
VL: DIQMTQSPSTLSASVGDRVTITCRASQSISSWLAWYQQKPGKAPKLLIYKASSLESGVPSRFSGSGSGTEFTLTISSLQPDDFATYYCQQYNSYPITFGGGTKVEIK
notes: named as a single clone only on the drawing sheets
With B4, the 50% effective concentration (EC50 (read off the curve)) – broadly, the concentration at which the effect is half-maximal – in experiment [7] is roughly 0.6 nM. The binding result in experiment [8] and in experiment [9] was “binds” in each case.

B5: ADI-27724 (antibody, V domains shown)
VH: QVQLQQWGAGLLKPSETLSLTCAVYGGSFSGYYWSWIRQPPGKGLEWIGEIDHSGSTNYNPSLKSRVTISVDTSKNQFSLKLSSVTAADTAVYYCARARGPWSFDPWGQGTLVTVSS
VL: not shown
notes: as for B4
Regarding B5, the “EC50 (read off the curve)” value in experiment [7] is roughly 10 nM; in experiment [8] it was roughly 8 nM; in experiment [9], roughly 8 nM.

B6: ADI-27741 (antibody, V domains shown)
VH: QVQLQQWGAGLLKPSETLSLTCAVYGGSFSGYYWSWIRQPPGKGLEWIGEIDHSGSTNYNPSLKSRVTISVDTSKNQFSLKLSSVTAADTAVYYCARARGPWSFDPWGQGTLVTVSS
VL: DIQMTQSPSTLSASVGDRVTITCRASQSIGSWLAWYQQKPGKAPKLLIYKASSLESGVPSRFSGSGSGTEFTLTISSLQPDDFATYYCQQSNSYYTFGGGTKVEIK
notes: as for B4
B6: the binding result in experiment [7], in experiment [8] and in experiment [9] was “binds” in each case.

B7: ADI-28226 (antibody, V domains shown)
VH: QVQLQQWGAGLLKPSETLSLTCAVYGGSFSGYYWSWIRQPPGKGLEWIGEIDHSGSTNYNPSLKSRVTISVDTSKNQFSLKLSSVTAADTAVYYCARARGPWSFDPWGQGTLVTVSS
VL: DIQMTQSPSTLSASVGDRVTITCRASQSISSWLAWYQQKPGKAPKLLIYKASSLESGVPSRFSGSGSGTEFTLTISSLQPDDFATYYCQQYGSFPITFGGGTKVEIK
notes: named as a single clone only on the drawing sheets; also called C26
As for B7, the binding result in [7], in experiment [8] and in experiment [9] was “binds” throughout.

B8: ADI-27744 (A44) (antibody, V domains shown)
VH: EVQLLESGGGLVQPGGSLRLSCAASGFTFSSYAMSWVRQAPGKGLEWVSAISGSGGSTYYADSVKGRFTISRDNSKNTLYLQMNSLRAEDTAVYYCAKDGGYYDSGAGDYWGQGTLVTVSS
VL: DIQMTQSPSSVSASVGDRVTITCRASQGIDSWLAWYQQKPGKAPKLLIYAASSLQSGVPSRFSGSGSGTDFTLTISSLQPEDFATYYCQQGVSYPRTFGGGTKVEIK
In experiment [6], B8 returned a Kd of 10.1 nM, a koff of 0.00299 s⁻¹ and a kon of 295000 M⁻¹ s⁻¹.

B9: ADI-27749 (A49) (antibody, V domains shown)
VH: EVQLVESGGGLVKPGGSLRLSCAASGFTFSSYSMNWVRQAPGKGLEWVSSISSSSSYIYYADSVKGRFTISRDNAKNSLYLQMNSLRAEDTAVYYCARGAPMGAAAGWFDPWGQGTLVTVSS
VL: DIQMTQSPSSVSASVGDRVTITCRASQGISSWLAWYQQKPGKAPKLLIYAASSLQSGVPSRFSGSGSGTDFTLTISSLQPEDFATYYCQQGVSFPRTFGGGTKVEIK
Regarding B9, in experiment [6], binding was put at a Kd of 12.4 nM, the koff amounted to 0.00489 s⁻¹ and the kon is 395000 M⁻¹ s⁻¹.
